From publication PMC6479699, “Structural and Functional Characterization of the Human Thymidylate Synthase (hTS) Interface Variant R175C, New Perspectives for the Development of hTS Inhibitors” (Molecules, 2019)

Molecular target: the molecule itself
Test: SEC; HiLoad 16/600 Superdex 75pg column, last purification step; sample dialysed in buffer A (50 mM Tris pH 6.9, 300 mM KCl) beforehand

B1: His6-tag human thymidylate synthase variant R175C (enzyme, UniProt P04818 1-313, looked up)
chain: MPVAGSELPRRPLPPAAQERDAEPRPPHGELQYLGQIQHILRCGVRKDDRTGTGTLSVFGMQARYSLRDEFPLLTTKRVFWKGVLEELLWFIKGSTNAKELSSKGVKIWDANGSRDFLDSLGFSTREEGDLGPVYGFQWRHFGAEYRDMESDYSGQGVDQLQRVIDTIKTNPDDCRIIMCAWNPRDLPLMALPPCHALCQFYVVNSELSCQLYQRSGDMGLGVPFNIASYALLTYMIAHITGLKPGDFIHTLGDAHIYLNHIEPLKIQLQREPRPFPKLRILRKVEKIDDFKAEDFQIEGYNPHPTIKMEMAV
modifications: Cys195 oxidized to S-oxy-cysteine (CSX195) in all subunits of the crystal structure
notes: human thymidylate synthase (hTS, EC 2.1.1.45); Arg175 replaced by cysteine; In the crystal the chains were traced apart from the first 22-23 N-terminal residues and the C-terminal valine; also called HT-hTS R175C; hTS R175C; not shown: His6, N-terminal, kept
With B1 the “stoichiometry N” value was 2.
